Laboratory results: the Human Domainome abundance scans (Beltran et al. 2025)
± gives the uncertainty stated by the source.

B1: Intersectin-2, residues 1129 to 1183; numbered along this chain, Q9NZM3 (parent)
chain: VCQVIAMYDYAANNEDELSFSKGQLINVMNKDDPDWWQGEINGVTGLFPSNYVKM
B2: Zinc finger homeobox protein 3, residues 2147 to 2202; numbered along this chain, Q15911 (parent)
chain: RPRTRITDDQLRVLRQYFDINNSPSEEQIKEMADKSGLPQKVIKHWFRNTLFKERQ

Variants of: B1
Assay: abundance fitness (aPCA) (normalised: wild type 0, dead -1); higher = more abundant; growth selection in yeast, the domain comes from the species named
Conditions: Homo sapiens

Variant	abundance fitness
T45C	-0.087 ± 0.056
T45L	-0.031 ± 0.03
T45D	-0.1 ± 0.056
T45E	-0.053 ± 0.038
T45R	-0.076 ± 0.044
T45V	-0.092 ± 0.049
T45G	-0.042 ± 0.045
T45F	-0.051 ± 0.071
T45A	-0.044 ± 0.028
T45P	-0.083 ± 0.038
T45N	-0.062 ± 0.062
T45K	-0.03 ± 0.04
T45W	-0.153 ± 0.07
T45Q	-0.024 ± 0.064
T45I	-0.103 ± 0.045
T45S	-0.003 ± 0.041
T45M	-0.145 ± 0.064
S50N	-0.1 ± 0.044
S50W	-0.399 ± 0.055
S50Y	-0.128 ± 0.067
S50K	-0.074 ± 0.055
S50A	-0.046 ± 0.043
S50M	0.004 ± 0.052
S50E	-0.266 ± 0.056
S50L	-0.166 ± 0.03

Variant	abundance fitness
S50D	-0.98 ± 0.16
S50T	-0.084 ± 0.045
S50G	-0.109 ± 0.038
S50Q	-0.037 ± 0.039
S50P	-0.015 ± 0.031
S50I	-0.084 ± 0.066
S50C	-0.139 ± 0.055
G43D	-0.044 ± 0.045
G43Q	-0.202 ± 0.067
G43H	-0.025 ± 0.058
G43E	-0.032 ± 0.037
G43A	-0.044 ± 0.03
G43M	-0.08 ± 0.041
G43T	-0.128 ± 0.044
G43S	-0.024 ± 0.033
G43W	-0.404 ± 0.067
G43I	-0.865 ± 0.1
G43V	-0.765 ± 0.045
G43K	0.029 ± 0.04
G43P	-0.908 ± 0.075
G43R	-0.069 ± 0.036
G43Y	-0.237 ± 0.068
G43L	-0.175 ± 0.034
V53M	-0.379 ± 0.086
V53I	0.065 ± 0.058

Variant	abundance fitness
V53K	-0.902 ± 0.097
V53P	-0.905 ± 0.047
V53W	-1.11 ± 0.23
V53R	-0.703 ± 0.05
V53G	-0.116 ± 0.036
V53C	-0.054 ± 0.034
V53A	-0.071 ± 0.045
V53L	-0.623 ± 0.042
V53T	0.03 ± 0.04
V53H	-0.477 ± 0.11
V53Q	-0.564 ± 0.03
V53E	-0.666 ± 0.11
K54L	-0.177 ± 0.034
K54D	-0.05 ± 0.032
K54S	-0.055 ± 0.047
K54I	-0.123 ± 0.048
K54R	0.099 ± 0.052
K54F	-0.148 ± 0.046
K54N	-0.08 ± 0.047
K54E	-0.032 ± 0.054
K54A	-0.119 ± 0.028
K54M	-0.154 ± 0.056
K54G	-0.172 ± 0.056
K54Y	-0.104 ± 0.026
K54T	0.014 ± 0.047

Variant	abundance fitness
K54H	-0.068 ± 0.032
K54P	-0.507 ± 0.076
K54V	-0.161 ± 0.033
K54C	-0.12 ± 0.053
K54Q	-0.049 ± 0.042
K54W	-0.388 ± 0.12
F48G	-0.945 ± 0.079
F48D	-0.806 ± 0.17
F48L	0 ± 0.036
F48T	-0.85 ± 0.096
F48M	-0.092 ± 0.052
F48S	-0.775 ± 0.049
F48E	-0.834 ± 0.1
F48K	-1 ± 0.12
F48C	-0.199 ± 0.047
F48H	-0.937 ± 0.17
F48P	-0.718 ± 0.19
F48N	-1.17 ± 0.28
F48V	-0.027 ± 0.031
F48Y	-0.898 ± 0.18
F48I	-0.085 ± 0.06
F48W	-1 ± 0.23
F48A	-0.69 ± 0.036
F48Q	-0.778 ± 0.12
N51P	-0.038 ± 0.057

Variant	abundance fitness
N51M	-0.071 ± 0.032
N51Y	-0.067 ± 0.04
N51W	-0.121 ± 0.031
N51Q	-0.081 ± 0.062
N51C	-0.044 ± 0.058
N51D	-0.005 ± 0.055
N51F	-0.141 ± 0.064
N51R	-0.026 ± 0.039
N51T	-0.034 ± 0.042
N51I	-0.077 ± 0.032
N51G	-0.021 ± 0.031
N51E	-0.154 ± 0.05
N51L	-0.149 ± 0.043
N51H	-0.025 ± 0.029
N51S	-0.02 ± 0.028
N51A	-0.075 ± 0.044
I41V	-0.055 ± 0.042
I41S	-0.038 ± 0.04
I41P	-1.01 ± 0.088
I41L	-0.012 ± 0.037
I41H	0.022 ± 0.062
I41T	-0.017 ± 0.049
I41N	-0.159 ± 0.068
I41Q	-0.085 ± 0.06
I41R	-0.028 ± 0.031

Variant	abundance fitness
I41M	-0.032 ± 0.049
I41K	-0.094 ± 0.052
I41F	0.079 ± 0.053
M55K	-0.233 ± 0.21
M55L	-0.095 ± 0.033
M55A	0.079 ± 0.24
M55S	0.007 ± 0.06
M55V	-0.103 ± 0.042
M55T	-0.06 ± 0.079
M55G	-0.097 ± 0.078
M55Q	-0.09 ± 0.082
M55E	0.009 ± 0.18
M55W	-0.255 ± 0.078
M55R	-0.088 ± 0.052
V44S	-0.046 ± 0.034
V44I	0.027 ± 0.051
V44A	-0.006 ± 0.043
V44R	-0.055 ± 0.034
V44P	-0.438 ± 0.054
V44G	0.001 ± 0.039
V44E	-0.108 ± 0.062
V44C	-0.023 ± 0.045
V44W	-0.151 ± 0.049
V44H	0.028 ± 0.058
V44Y	-0.101 ± 0.057

Variant	abundance fitness
V44N	-0.049 ± 0.046
V44L	-0.033 ± 0.041
V44F	-0.098 ± 0.045
V44T	-0.052 ± 0.053
V44K	-0.056 ± 0.05
V44Q	-0.083 ± 0.066
V44M	-0.169 ± 0.061
V44D	-0.117 ± 0.062
N42W	-0.148 ± 0.044
N42I	-0.196 ± 0.062
N42F	-0.126 ± 0.055
N42G	-0.042 ± 0.034
N42D	-0.16 ± 0.063
N42P	-0.473 ± 0.038
N42T	-0.01 ± 0.051
N42L	-0.068 ± 0.037
N42M	-0.046 ± 0.045
N42Y	-0.082 ± 0.032
N42K	-0.093 ± 0.054
N42S	-0.021 ± 0.031
N42Q	-0.084 ± 0.05
N42R	-0.054 ± 0.036
N42C	0.014 ± 0.064
N42H	0 ± 0.041
N42V	-0.1 ± 0.039

Variant	abundance fitness
N42E	0 ± 0.042
N42A	-0.013 ± 0.049
P49I	-0.49 ± 0.11
P49N	-0.106 ± 0.062
P49Y	-0.104 ± 0.097
P49R	0.017 ± 0.039
P49Q	-0.129 ± 0.049
P49S	-0.195 ± 0.035
P49H	-0.1 ± 0.082
P49K	-0.017 ± 0.041
P49V	-0.782 ± 0.059
P49A	-0.193 ± 0.052
P49T	-0.746 ± 0.099
P49E	-0.442 ± 0.037
P49L	-0.143 ± 0.032
P49M	-0.086 ± 0.05
P49F	-0.358 ± 0.032
P49D	-0.482 ± 0.088
G46H	-1.05 ± 0.1
G46C	-0.606 ± 0.068
G46E	-0.973 ± 0.056
G46I	-1.14 ± 0.22
G46W	-0.92 ± 0.083
G46Y	-0.807 ± 0.21
G46K	-0.1 ± 0.033

Variant	abundance fitness
G46S	-0.764 ± 0.047
G46F	-0.864 ± 0.27
G46D	-0.799 ± 0.13
G46N	-0.483 ± 0.042
G46Q	-0.945 ± 0.082
G46T	-0.788 ± 0.11
G46M	-1.06 ± 0.15
G46L	-0.701 ± 0.06
G46P	-1.01 ± 0.17
G46A	-0.137 ± 0.03
G46R	-0.318 ± 0.037
L47Y	-0.04 ± 0.049
L47H	-0.061 ± 0.068
L47G	-0.023 ± 0.037
L47S	-0.011 ± 0.03
L47D	-0.142 ± 0.041
L47P	-0.257 ± 0.05
L47N	-0.086 ± 0.061
L47Q	-0.019 ± 0.05
L47M	-0.128 ± 0.043
L47A	-0.007 ± 0.031
L47C	-0.185 ± 0.057
L47T	-0.014 ± 0.043
L47I	-0.183 ± 0.067
L47W	-0.061 ± 0.033

Variant	abundance fitness
L47K	0.039 ± 0.052
Y52N	-0.107 ± 0.071
Y52P	-0.544 ± 0.083
Y52I	-0.023 ± 0.071
Y52W	-0.139 ± 0.045
Y52E	-0.192 ± 0.051
Y52T	-0.065 ± 0.054
Y52G	-0.122 ± 0.028
Y52L	0.037 ± 0.045
Y52K	0.082 ± 0.051
Y52R	-0.019 ± 0.038
Y52C	-0.042 ± 0.034
Y52F	0.15 ± 0.078
Y52S	-0.066 ± 0.028
Y52M	-0.002 ± 0.058
Y52D	-0.575 ± 0.096
Y52H	0.009 ± 0.076

Variants of: B2
Assay: as above
Conditions: Homo sapiens

Variant	abundance fitness
P2A	-0.134 ± 0.1
P2T	0.279 ± 0.11
P2D	0.38 ± 0.14
P2G	-0.005 ± 0.084
P2L	0.086 ± 0.096
P2Q	0.215 ± 0.17
P2V	0.018 ± 0.09
P2I	0.105 ± 0.15
P2E	0.184 ± 0.14
P2H	0.012 ± 0.15
P2Y	-0.057 ± 0.18
P2R	0.127 ± 0.091
P2C	-0.608 ± 0.14
P2M	0.171 ± 0.19
P2N	0.28 ± 0.22
P2W	-0.679 ± 0.11
P2S	0.102 ± 0.092
T4Y	-0.005 ± 0.2
T4D	0.029 ± 0.14
T4P	-0.159 ± 0.13
T4S	-0.191 ± 0.095
T4M	0.13 ± 0.12
T4K	-0.16 ± 0.12

Variant	abundance fitness
T4L	-0.11 ± 0.094
T4R	-0.393 ± 0.086
T4H	-0.549 ± 0.36
T4G	-0.256 ± 0.083
T4I	-0.02 ± 0.16
T4V	-0.13 ± 0.089
T4W	-1.13 ± 0.16
T4N	0.134 ± 0.19
T4F	0.125 ± 0.14
R5K	0.093 ± 0.1
R5I	0.148 ± 0.074
R5W	-0.054 ± 0.11
R5E	0.155 ± 0.12
R5N	0.201 ± 0.084
R5P	0.127 ± 0.084
R5L	0.143 ± 0.07
R5V	0.129 ± 0.07
R5F	0.08 ± 0.083
R5M	0.138 ± 0.09
R5C	0.076 ± 0.093
R5D	0.235 ± 0.087
R5A	-0.051 ± 0.076
R5T	0.137 ± 0.068

Variant	abundance fitness
R5H	0.074 ± 0.083
R5S	0.088 ± 0.065
R5Q	-0.027 ± 0.1
R5G	-0.023 ± 0.067
I6E	-0.408 ± 0.091
I6C	-0.4 ± 0.12
I6L	0.179 ± 0.076
I6K	-0.332 ± 0.11
I6F	-0.052 ± 0.12
I6D	-0.484 ± 0.12
I6H	-0.241 ± 0.14
I6G	-0.48 ± 0.08
I6N	-0.401 ± 0.14
I6P	-0.108 ± 0.12
I6Q	-0.529 ± 0.11
R3P	-0.108 ± 0.14
R3Y	-0.085 ± 0.19
R3T	0.197 ± 0.12
R3G	0.143 ± 0.066
R3K	-0.25 ± 0.14
R3E	0.184 ± 0.089
R3N	0.016 ± 0.17
R3L	-0.014 ± 0.082

Variant	abundance fitness
R3C	-0.426 ± 0.13
R3F	-0.275 ± 0.15
R3W	-0.57 ± 0.1
R3D	0.215 ± 0.14
R3S	0.034 ± 0.087
R3M	0.293 ± 0.11
R3V	0.006 ± 0.075
R3H	0.172 ± 0.15
R3Q	-0.062 ± 0.14
R1L	-0.303 ± 0.17
R1Y	0.022 ± 0.28
R1W	-0.979 ± 0.18
R1P	-0.165 ± 0.26
R1N	0.078 ± 0.32
R1S	-0.399 ± 0.14
R1G	-0.247 ± 0.091
R1E	-0.832 ± 0.21
R1A	-0.652 ± 0.41
R1M	-0.573 ± 0.2
R1C	-0.134 ± 0.21
R1T	-0.271 ± 0.16
R1I	-0.433 ± 0.46
R1F	-0.385 ± 0.39
